The values below come from paper PMC11774777, “A PDZ-kinase allosteric relay mediates Par complex regulator exchange” (The Journal of Biological Chemistry, 2024).

Like-named read-outs stand apart in the source and are kept apart here. Bounds are passed on as bounds.

Assay [1] deals with T1, GST-fused Par-6 CRIB-PDZ (UniProt O97111 130-255).
T1 construct: Par-6, CRIB motif and PDZ domain; also called GST Par-6 CRIB-PDZ
T1 sequence (looked up): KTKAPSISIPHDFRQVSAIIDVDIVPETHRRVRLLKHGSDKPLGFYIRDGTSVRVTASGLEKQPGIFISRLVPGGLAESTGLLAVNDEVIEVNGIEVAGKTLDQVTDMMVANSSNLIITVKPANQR
As to the kind of experiment: pull-down; GST-Par-6 CRIB-PDZ on glutathione resin, Par complex ΔCRIB-PDZ with soluble Par-3 BR-PDZ2 added; same buffer, 60 min at RT; Coomassie, normalized band intensity of aPKC. The conditions noted are these: both partners purified.

In assay [2] the target is T2, GST-fused Par-3 PDZ2 with its associated basic region (BR-PDZ2) (UniProt O96782 1-1464).
T2 chain: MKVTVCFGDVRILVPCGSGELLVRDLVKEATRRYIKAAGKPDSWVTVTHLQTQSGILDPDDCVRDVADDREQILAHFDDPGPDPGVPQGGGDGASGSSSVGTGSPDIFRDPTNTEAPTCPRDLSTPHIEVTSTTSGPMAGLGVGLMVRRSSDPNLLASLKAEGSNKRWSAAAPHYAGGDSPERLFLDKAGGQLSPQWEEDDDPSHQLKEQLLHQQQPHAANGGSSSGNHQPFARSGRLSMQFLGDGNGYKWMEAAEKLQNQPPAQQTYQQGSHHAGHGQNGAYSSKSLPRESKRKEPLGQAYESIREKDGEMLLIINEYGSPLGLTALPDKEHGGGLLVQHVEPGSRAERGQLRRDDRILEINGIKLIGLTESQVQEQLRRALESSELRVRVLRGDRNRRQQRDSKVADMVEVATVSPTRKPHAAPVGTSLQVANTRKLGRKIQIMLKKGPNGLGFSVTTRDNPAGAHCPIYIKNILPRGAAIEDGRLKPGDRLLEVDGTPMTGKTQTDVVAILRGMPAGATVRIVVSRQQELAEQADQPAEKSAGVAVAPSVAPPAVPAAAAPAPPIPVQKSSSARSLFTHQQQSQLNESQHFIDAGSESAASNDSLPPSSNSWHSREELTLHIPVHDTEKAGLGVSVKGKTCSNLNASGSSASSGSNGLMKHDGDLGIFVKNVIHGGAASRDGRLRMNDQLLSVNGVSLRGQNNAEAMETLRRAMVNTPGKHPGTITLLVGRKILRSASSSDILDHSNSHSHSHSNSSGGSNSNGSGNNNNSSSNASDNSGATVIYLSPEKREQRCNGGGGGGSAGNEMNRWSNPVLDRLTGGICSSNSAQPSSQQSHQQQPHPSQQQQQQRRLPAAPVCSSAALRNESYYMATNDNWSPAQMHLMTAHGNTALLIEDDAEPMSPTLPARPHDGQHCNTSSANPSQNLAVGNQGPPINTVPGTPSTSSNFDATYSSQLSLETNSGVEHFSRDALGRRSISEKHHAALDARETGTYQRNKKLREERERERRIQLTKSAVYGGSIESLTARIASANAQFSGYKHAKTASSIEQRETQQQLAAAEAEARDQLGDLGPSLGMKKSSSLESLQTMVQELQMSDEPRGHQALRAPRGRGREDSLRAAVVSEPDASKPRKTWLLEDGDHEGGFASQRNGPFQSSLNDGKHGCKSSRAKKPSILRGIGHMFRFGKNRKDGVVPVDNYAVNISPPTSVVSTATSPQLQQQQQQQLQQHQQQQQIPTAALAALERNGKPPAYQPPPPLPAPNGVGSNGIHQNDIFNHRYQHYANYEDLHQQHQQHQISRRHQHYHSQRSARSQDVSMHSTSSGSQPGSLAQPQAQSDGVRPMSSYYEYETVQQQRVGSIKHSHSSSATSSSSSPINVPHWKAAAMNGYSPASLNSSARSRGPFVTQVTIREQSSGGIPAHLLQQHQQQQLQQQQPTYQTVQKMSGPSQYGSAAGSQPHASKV
Kind of assay: with Par-6 CRIB-PDZ added in trans.

The target of assay [3] is T2, GST-fused Par-3 PDZ2 with its ….

B1: Par complex ΔCRIB-PDZ (full-length aPKC plus the Par-6 PB1 domain) (complex)
chain 1: MQKMPSQILNDGSSVSLNSASMNMANTPNSITVKTAYNGQIIITTINKNISYEELCYEIRNICRFPLDQPFTIKWVDEENDPCTISTKMELDEAIRLYEMNFDSQLVIHVFPNVPQAPGLSCDGEDRSIYRRGARRWRKLYRVNGHIFQAKRFNRRAFCAYCQDRIWGLGRQGFKCIQCKLLVHKKCHKLVQKHCTDQPEPLVKERAEESSDPIPVPLPPLPYEAMSGGAEACETHDHAHIVAPPPPEDPLEPGTQRQYSLNDFELIRVIGRGSYAKVLMVELRRTRRIYAMKVIKKALVTDDEDIDWVQTEKHVFETASNHPFLVGLHSCFQTPSRLFFVIEFVRGGDLMYHMQRQRRLPEEHARFYAAEISLALNFLHEKGIIYRDLKLDNVLLDHEGHIKLTDYGMCKEGIRPGDTTSTFCGTPNYIAPEILRGEDYGFSVDWWALGVLLYEMLAGRSPFDLAGASENPDQNTEDYLFQVILEKTIRIPRSLSVRAASVLKGFLNKNPADRLGCHRESAFMDIVSHPFFKNMDWELLERKQVTPPFKPRLDSDRDLANFPPEFTGEAVQLTPDDDHVIDNIDQSEFEGFEYVNPLLMSLEDCV
chain 2: MSKNKINTTSATAASDTNLIEVKSKFDAEFRRWSFKRNEAEQSFDKFASLIEQLHKLTNIQFLILYIDPRDNDLLPINNDDNFGRALKTARPLLRVIVQRKDDLNEYSGFGTMKPRNLIGSILMGHTPV
notes: atypical PKC (aPKC), full length; Par-6, PB1 domain; The complex was His-purified; also called full-length aPKC with Par-6 PB1; source: HEK 293F, co-transfected, purified (cobalt resin, anion exchange)
In the case of B1, the “fold increase of binding with Par-3 PDZ2 against without Par-3” value in assay [1] is more than 20 fold. For the same molecule, the Kd came to 11.3 µM in assay [2] and 161 µM in assay [3].

In general, Kd refers to the concentration at which binding is half-saturated. Low values mean a tighter complex, high ones a looser complex.
